The results in this text go back to paper PMC5538626, “Structural and functional analysis of the GABARAP interaction motif (GIM)” (EMBO Reports, 2017).

The test system of experiment [1] is GFP-LC3B. Briefly: Co-immunoprecipitation of full-length PLEKHM1 LIR variants with GFP-LC3B. The note with it: full-length PLEKHM1-Flag, Fig 4C.
Experiment [2] relates to endogenous LC3B. Kind of experiment: Co-immunoprecipitation of GFP-FUNDC1 with endogenous LC3B, HEK293 cells. The format is cell-based. The note with it: HEK293, non-stimulated (DMSO); Fig 5C left. As to the method:
(§1) Blots were probed for the presence of endogenous GABARAP and LC3B proteins. • 3xFlag‐FIP200 WT, E703V, I705V, E703V/I705V and F702A/I705A were overexpressed in HEK293 cells and immunoprecipitated using anti‐Flag beads and subjected to SDS–PAGE and Western blotting. Blots were probed for the presence of endogenous GABARAP and LC3B proteins. • GFP‐FUNDC1 WT, E19V, L21V, E19V/L21V and Y18A/L21A were overexpressed in HEK293 cells and either treated with vehicle only (DMSO) or 20 μM CCCP for 2 h, lysed and GFP‐FUNDC1 immunoprecipitated using anti‐GFP beads (or anti‐RFP beads as control) and subjected to SDS–PAGE and Western blotting. Blots were probed for the presence of endogenous GABARAP and LC3B proteins.

Experiment [3] deals with endogenous GABARAP. Kind of experiment: Co-immunoprecipitation of GFP-FUNDC1 with endogenous GABARAP, HEK293 cells. The format is cell-based. As to conditions: HEK293, non-stimulated (DMSO); Fig 5C left. The procedure:
as §1

B1: PLEKHM1‐WCIL (full length): full-length PLEKHM1-Flag, variant LIR WVNV/WCIL (protein)
chain: MLSVVENGLDPQAAIPVIKKKLVGSVKALQKQYVSLDTVVTSEDGDANTMCSALEAVFIHGLHAKHIRAEAGGKRKKSAHQKPLPQPVFWPLLKAVTHKHIISELEHLTFVNTDVGRCRAWLRLALNDGLMECYLKLLLQEQARLHEYYQPTALLRDAEEGEFLLSFLQGLTSLSFELSYKSAILNEWTLTPLALSGLCPLSELDPLSTSGAELQRKESLDSISHSSGSEDIEVHHSGHKIRRNQKLTASSLSLDTASSSQLSCSLNSDSCLLQENGSKSPDHCEEPMSCDSDLGTANAEDSDRSLQEVLLEFSKAQVNSVPTNGLSQETEIPTPQASLSLHGLNTSTYLHCEAPAEPLPAQAASGTQDGVHVQEPRPQAPSPLDLQQPVESTSGQQPSSTVSETAREVGQGNGLQKAQAHDGAGLKLVVSSPTSPKNKSWISEDDFYRPSREQPLESASDHPIASYRGTPGSRPGLHRHFSQEPRKNCSLGALDQACVPSPGRRQAQAAPSQGHKSFRVVHRRQMGLSNPFRGLMKLGTVERRGAMGIWKELFCELSPLEFRLYLSNEEHTCVENCSLLRCESVGPAHSDGRFELVFSGKKLALRASSQDEAEDWLDRVREALQKVRPQQEDEWCILQYPDQPEEPPEAPQGCLSPSDLLSEPAALQGTQFDWSSAQVPEPDAIKESLLYLYMDRTWMPYIFSLSLEALKCFRIRNNEKMLSDSHGVETIRDILPDTSLGGPSFFKIITAKAVLKLQAGNAEEAALWRDLVRKVLASYLETAEEAVTLGGSLDENCQEVLKFATRENGFLLQYLVAIPMEKGLDSQGCFCAGCSRQIGFSFVRPKLCAFSGLYYCDICHQDDASVIPARIIHNWDLTKRPICRQALKFLTQIRAQPLINLQMVNASLYEHVERMHLIGRRREQLKLLGDYLGLCRSGALKELSKRLNHRNYLLESPHRFSVADLQQIADGVYEGFLKALIEFASQHVYHCDLCTQRGFICQICQHHDIIFPFEFDTTVRCAECKTVFHQSCQAVVKKGCPRCARRRKYQEQNIFA
modifications: left off: Flag, end not stated, kept
Turning to B1, the “co-precipitation with GFP-LC3B” value in experiment [1] is “increased co‐precipitation with GFP‐LC3B”; in experiment [1] (listed as Plekhm1-WCIL), “increased interaction”.

B2: Plekhm1-mutLIR: full-length PLEKHM1-Flag, mutant LIR EDEWVNV/AAAAVNG (protein)
chain: MLSVVENGLDPQAAIPVIKKKLVGSVKALQKQYVSLDTVVTSEDGDANTMCSALEAVFIHGLHAKHIRAEAGGKRKKSAHQKPLPQPVFWPLLKAVTHKHIISELEHLTFVNTDVGRCRAWLRLALNDGLMECYLKLLLQEQARLHEYYQPTALLRDAEEGEFLLSFLQGLTSLSFELSYKSAILNEWTLTPLALSGLCPLSELDPLSTSGAELQRKESLDSISHSSGSEDIEVHHSGHKIRRNQKLTASSLSLDTASSSQLSCSLNSDSCLLQENGSKSPDHCEEPMSCDSDLGTANAEDSDRSLQEVLLEFSKAQVNSVPTNGLSQETEIPTPQASLSLHGLNTSTYLHCEAPAEPLPAQAASGTQDGVHVQEPRPQAPSPLDLQQPVESTSGQQPSSTVSETAREVGQGNGLQKAQAHDGAGLKLVVSSPTSPKNKSWISEDDFYRPSREQPLESASDHPIASYRGTPGSRPGLHRHFSQEPRKNCSLGALDQACVPSPGRRQAQAAPSQGHKSFRVVHRRQMGLSNPFRGLMKLGTVERRGAMGIWKELFCELSPLEFRLYLSNEEHTCVENCSLLRCESVGPAHSDGRFELVFSGKKLALRASSQDEAEDWLDRVREALQKVRPQQAAAAVNGQYPDQPEEPPEAPQGCLSPSDLLSEPAALQGTQFDWSSAQVPEPDAIKESLLYLYMDRTWMPYIFSLSLEALKCFRIRNNEKMLSDSHGVETIRDILPDTSLGGPSFFKIITAKAVLKLQAGNAEEAALWRDLVRKVLASYLETAEEAVTLGGSLDENCQEVLKFATRENGFLLQYLVAIPMEKGLDSQGCFCAGCSRQIGFSFVRPKLCAFSGLYYCDICHQDDASVIPARIIHNWDLTKRPICRQALKFLTQIRAQPLINLQMVNASLYEHVERMHLIGRRREQLKLLGDYLGLCRSGALKELSKRLNHRNYLLESPHRFSVADLQQIADGVYEGFLKALIEFASQHVYHCDLCTQRGFICQICQHHDIIFPFEFDTTVRCAECKTVFHQSCQAVVKKGCPRCARRRKYQEQNIFA
modifications: left off: Flag, end not stated, kept
Regarding B2, in experiment [1], the “co-precipitation with GFP-LC3B” value is listed as “decreased interaction”.

B3: E19V: GFP-FUNDC1 E19V (protein, UniProt Q8IVP5 1-155, looked up, variant E19V)
FUN14 domain-containing …: MATRNPPPQDYESDDDSYVVLDLTEYARRHQWWNRVFGHSSGPMVEKYSVATQIVMGGVTGWCAGFLFQKVGKLAATAVGGGFLLLQIASHSGYVQIDWKRVEKDVNKAKRQIKKRANKAAPEINNLIEEATEFIKQNIVISSGFVGGFLLGLAS
modifications: GFP tag
For the molecule B3, the “interaction of FUNDC1 with endogenous LC3” value in experiment [2] is on record as “increased LC3 interaction”. In addition, in experiment [3], the “interaction of FUNDC1 with endogenous GABARAP” value is “moderately enhanced”.

B4: L21V: GFP-FUNDC1 L21V (protein, UniProt Q8IVP5 1-155, looked up, variant L21V)
FUN14 domain-containing …: MATRNPPPQDYESDDDSYEVVDLTEYARRHQWWNRVFGHSSGPMVEKYSVATQIVMGGVTGWCAGFLFQKVGKLAATAVGGGFLLLQIASHSGYVQIDWKRVEKDVNKAKRQIKKRANKAAPEINNLIEEATEFIKQNIVISSGFVGGFLLGLAS
modifications: GFP tag
As for B4, in experiment [2], the “interaction of FUNDC1 with endogenous LC3” value is “little effect”. Moreover, in experiment [3], the “interaction of FUNDC1 with endogenous GABARAP” value is on record as “little effect”.
